Biological target: T1, in vitro translated GGA3 wild type (from HA-GGA3 pcDNA4 plasmid), Q9NZ52
T1 chain: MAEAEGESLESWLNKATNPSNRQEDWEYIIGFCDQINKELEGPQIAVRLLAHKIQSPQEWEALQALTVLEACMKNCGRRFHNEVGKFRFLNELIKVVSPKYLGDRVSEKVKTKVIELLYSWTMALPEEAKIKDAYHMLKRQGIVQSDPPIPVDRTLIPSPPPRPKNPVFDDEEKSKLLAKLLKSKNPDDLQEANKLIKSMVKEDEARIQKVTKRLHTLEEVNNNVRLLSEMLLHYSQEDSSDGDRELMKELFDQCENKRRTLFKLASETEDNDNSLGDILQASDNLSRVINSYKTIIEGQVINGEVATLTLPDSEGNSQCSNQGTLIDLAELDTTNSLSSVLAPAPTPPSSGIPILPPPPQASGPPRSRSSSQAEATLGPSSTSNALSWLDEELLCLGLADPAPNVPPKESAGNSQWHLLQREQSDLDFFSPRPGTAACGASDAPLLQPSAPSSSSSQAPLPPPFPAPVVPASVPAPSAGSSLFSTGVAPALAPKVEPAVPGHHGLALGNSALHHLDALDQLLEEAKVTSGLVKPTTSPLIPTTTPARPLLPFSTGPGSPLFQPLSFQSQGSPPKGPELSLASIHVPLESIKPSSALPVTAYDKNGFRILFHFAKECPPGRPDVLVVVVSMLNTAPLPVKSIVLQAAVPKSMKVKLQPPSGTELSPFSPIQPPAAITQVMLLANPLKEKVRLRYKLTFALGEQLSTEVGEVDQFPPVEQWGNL

B1: recombinant caspase 3 (Pharmingen) (protein)
chain: SGISLDNSYKMDYPEMGLCIIINNKNFHKSTGMTSRSGTDVDAANLRETFRNLKYEVRNKNDLTREEIVELMRDVSKEDHSKRSSFVCVLLSHGEEGIIFGTNGPVDLKKITNFFRGDRCRSLTGKPKLFIIQACRGTELDCGIETDSGVDDDMACHKIPVEADFLYAYSTAPGYYSWRNSKDGSWFIQSLCAMLKQYADKLEFMHILTRVNRKVATEFESFSFDATFHAKKQIPCIVSMLTKELYFYH
- cleavage of in vitro translated GGA3 (cold methionine), Western blot with anti-GGA3 antibody: recombinant caspase 3 cleaves in vitro translated GGA3 (cold methionine) in three fragments
- cleavage of in vitro translated [35S]-methionine-labeled GGA3 (SDS-PAGE, phosphorimager): Recombinant caspase 3 cleaved in vitro translated GGA3 in several fragments

From patent US20080118499
